# Reference: the supplement of paper PMC9112550, “Optimization of the antimicrobial peptide Bac7 by deep mutational scanning” (BMC Biology, 2022)
# System: Escherichia coli TOP10
# Assay: shrunken log2 fold change of peptide-encoding DNA abundance (4.5 h post-induction vs induction); higher = less antimicrobial activity (less host growth inhibition)
# Details: time post-induction: 4.5 h; library: site-saturation at positions 5, 18, 19, 20
# 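Note: peptides expressed intracellularly from a pBAD plasmid library in pooled LB shake-flask culture, induced with 0.3% L-arabinose, DNA abundance read by NGS, three biological replicates, DESeq2 with apeglm shrinkage.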
row,Sequence,shrunken log2 fold change
1,RRIRNRPPRLPRPRPRPNLGPRP,-0.00992
2,RRIRMRPPRLPRPRPRPIHYPRP,-0.689
3,RRIRLRPPRLPRPRPRPLLMPRP,-0.136
4,RRIRERPPRLPRPRPRPLQSPRP,-0.306
5,RRIRSRPPRLPRPRPRPYCAPRP,-0.698
6,RRIRGRPPRLPRPRPRPEGGPRP,1.17
7,RRIRLRPPRLPRPRPRPRHEPRP,0.055
8,RRIRTRPPRLPRPRPRPMDKPRP,-0.528
9,RRIRPRPPRLPRPRPRPIGGPRP,0.00483
10,RRIRERPPRLPRPRPRPTHEPRP,0.317
11,RRIRERPPRLPRPRPRPDINPRP,-0.239
12,RRIRERPPRLPRPRPRPQKNPRP,-0.49
13,RRIRLRPPRLPRPRPRPSLLPRP,-0.254
14,RRIRVRPPRLPRPRPRPCNNPRP,0.0786
15,RRIRTRPPRLPRPRPRPFRIPRP,-0.0114
16,RRIRHRPPRLPRPRPRPTLSPRP,-0.17
17,RRIRVRPPRLPRPRPRPNDSPRP,-0.326
18,RRIRDRPPRLPRPRPRPLDIPRP,0.0227
19,RRIRHRPPRLPRPRPRPAFYPRP,-0.332
20,RRIRGRPPRLPRPRPRPVNFPRP,0.44
21,RRIRQRPPRLPRPRPRPRTSPRP,0.131
22,RRIRIRPPRLPRPRPRPECDPRP,0.0126
23,RRIRMRPPRLPRPRPRPYKSPRP,-0.215
24,RRIRVRPPRLPRPRPRPQMLPRP,-0.158
25,RRIRSRPPRLPRPRPRPHMMPRP,-0.113

row,Sequence,shrunken log2 fold change
1,RRIRKRPPRLPRPRPRPIYSPRP,-0.41
2,RRIRIRPPRLPRPRPRPCENPRP,-0.00127
3,RRIRMRPPRLPRPRPRPQPPPRP,1.18
4,RRIRHRPPRLPRPRPRPCWAPRP,0.00936
5,RRIRFRPPRLPRPRPRPPWWPRP,0.651
6,RRIRVRPPRLPRPRPRPWLIPRP,-0.277
7,RRIRTRPPRLPRPRPRPQNEPRP,-0.276
8,RRIRARPPRLPRPRPRPCMCPRP,0.118
9,RRIRNRPPRLPRPRPRPDLCPRP,-0.0418
10,RRIRWRPPRLPRPRPRPKLHPRP,0.0953
11,RRIRSRPPRLPRPRPRPWYGPRP,-0.933
12,RRIRYRPPRLPRPRPRPWVAPRP,-0.481
13,RRIRGRPPRLPRPRPRPLFFPRP,0.415
14,RRIRYRPPRLPRPRPRPEWGPRP,-0.169
15,RRIRARPPRLPRPRPRPEDYPRP,-0.0332
16,RRIRCRPPRLPRPRPRPGANPRP,0.385
17,RRIRFRPPRLPRPRPRPAQAPRP,0.29
18,RRIRHRPPRLPRPRPRPHCTPRP,-0.0731
19,RRIRHRPPRLPRPRPRPDYMPRP,-0.336
20,RRIRERPPRLPRPRPRPPMCPRP,-0.305
21,RRIRDRPPRLPRPRPRPLYIPRP,-0.266
22,RRIRIRPPRLPRPRPRPYGNPRP,-1.18
23,RRIRWRPPRLPRPRPRPHGFPRP,0.407
24,RRIRLRPPRLPRPRPRPALQPRP,0.215
25,RRIRIRPPRLPRPRPRPSTIPRP,-0.361

row,Sequence,shrunken log2 fold change
1,RRIRVRPPRLPRPRPRPRNIPRP,-0.0258
2,RRIRSRPPRLPRPRPRPSVVPRP,-0.219
3,RRIRPRPPRLPRPRPRPSLEPRP,0.0508
4,RRIRKRPPRLPRPRPRPDAAPRP,0.976
5,RRIRHRPPRLPRPRPRPHRRPRP,0.0762
6,RRIRPRPPRLPRPRPRPSREPRP,0.113
7,RRIRPRPPRLPRPRPRPIGVPRP,0.108
8,RRIRYRPPRLPRPRPRPPNTPRP,-0.686
9,RRIRIRPPRLPRPRPRPSQSPRP,-0.0979
10,RRIRGRPPRLPRPRPRPKIYPRP,0.000217
11,RRIRERPPRLPRPRPRPLNMPRP,-0.528
12,RRIRPRPPRLPRPRPRPHDWPRP,-0.0184
13,RRIRIRPPRLPRPRPRPLKAPRP,-0.02
14,RRIRKRPPRLPRPRPRPSYTPRP,-0.0235
15,RRIRDRPPRLPRPRPRPVHSPRP,-0.243
16,RRIRARPPRLPRPRPRPKRLPRP,0.656
17,RRIRWRPPRLPRPRPRPVYNPRP,-0.817
18,RRIRYRPPRLPRPRPRPLSWPRP,-0.0279
19,RRIRFRPPRLPRPRPRPNDKPRP,-0.32
20,RRIRFRPPRLPRPRPRPATFPRP,-0.207
21,RRIRARPPRLPRPRPRPQTRPRP,0.874
22,RRIRYRPPRLPRPRPRPHWRPRP,-0.0836
23,RRIRVRPPRLPRPRPRPWCIPRP,-0.165
24,RRIRRRPPRLPRPRPRPGSHPRP,-0.154
25,RRIRKRPPRLPRPRPRPPKHPRP,0.723

row,Sequence,shrunken log2 fold change
1,RRIRIRPPRLPRPRPRPKQGPRP,0.391
2,RRIRERPPRLPRPRPRPNCEPRP,-0.155
3,RRIRARPPRLPRPRPRPWQKPRP,-0.0111
4,RRIRKRPPRLPRPRPRPPSKPRP,0.541
5,RRIRGRPPRLPRPRPRPLKGPRP,-0.117
6,RRIRVRPPRLPRPRPRPEWRPRP,0.212
7,RRIRGRPPRLPRPRPRPRWCPRP,0.351
8,RRIRWRPPRLPRPRPRPKKEPRP,-0.224
9,RRIRWRPPRLPRPRPRPKDWPRP,0.246
10,RRIRIRPPRLPRPRPRPADIPRP,0.00782
11,RRIRARPPRLPRPRPRPIKKPRP,-0.00732
12,RRIRNRPPRLPRPRPRPHFFPRP,3.33
13,RRIRFRPPRLPRPRPRPRTYPRP,-0.794
14,RRIRFRPPRLPRPRPRPSVAPRP,0.882
15,RRIRHRPPRLPRPRPRPEDMPRP,-0.208
16,RRIRERPPRLPRPRPRPDFAPRP,0.159
17,RRIRVRPPRLPRPRPRPEMIPRP,-0.0397
18,RRIRARPPRLPRPRPRPVQEPRP,0.509
19,RRIRARPPRLPRPRPRPHFDPRP,0.22
20,RRIRDRPPRLPRPRPRPTQFPRP,0.216
21,RRIRKRPPRLPRPRPRPTSQPRP,0.149
22,RRIRSRPPRLPRPRPRPPNPPRP,0.273
23,RRIRGRPPRLPRPRPRPHLTPRP,0.357
24,RRIRYRPPRLPRPRPRPDPDPRP,-0.162
25,RRIRFRPPRLPRPRPRPKTWPRP,0.157

row,Sequence,shrunken log2 fold change
1,RRIRNRPPRLPRPRPRPMYNPRP,-0.693
2,RRIRRRPPRLPRPRPRPHPCPRP,0.0156
3,RRIRMRPPRLPRPRPRPVPVPRP,0.364
4,RRIRTRPPRLPRPRPRPRCTPRP,-0.00178
5,RRIRCRPPRLPRPRPRPRLAPRP,0.559
6,RRIRYRPPRLPRPRPRPQHHPRP,-0.55
7,RRIRTRPPRLPRPRPRPDWWPRP,0.016
8,RRIRMRPPRLPRPRPRPNQHPRP,-0.0206
9,RRIRVRPPRLPRPRPRPQYHPRP,-0.648
10,RRIRRRPPRLPRPRPRPDRFPRP,0.394
11,RRIRRRPPRLPRPRPRPEWPPRP,0.387
12,RRIRMRPPRLPRPRPRPMRMPRP,0.759
13,RRIRYRPPRLPRPRPRPKMDPRP,0.0399
14,RRIRERPPRLPRPRPRPATTPRP,-0.0752
15,RRIRFRPPRLPRPRPRPRNIPRP,-0.313
16,RRIRERPPRLPRPRPRPWLIPRP,-0.397
17,RRIRCRPPRLPRPRPRPDKTPRP,-0.0581
18,RRIRLRPPRLPRPRPRPNDIPRP,-0.723
19,RRIRIRPPRLPRPRPRPGSDPRP,-0.209
20,RRIRKRPPRLPRPRPRPYLFPRP,-0.0275
21,RRIRVRPPRLPRPRPRPANEPRP,-0.174
22,RRIRRRPPRLPRPRPRPVSHPRP,0.218
23,RRIRDRPPRLPRPRPRPRGFPRP,0.586
24,RRIRHRPPRLPRPRPRPFMEPRP,-1
25,RRIRTRPPRLPRPRPRPHFAPRP,-0.227

row,Sequence,shrunken log2 fold change
1,RRIRKRPPRLPRPRPRPEWWPRP,0.0708
2,RRIRKRPPRLPRPRPRPQDGPRP,0.013
3,RRIRNRPPRLPRPRPRPMFAPRP,-0.239
4,RRIRGRPPRLPRPRPRPHRMPRP,-0.101
5,RRIRTRPPRLPRPRPRPIMHPRP,-0.176
6,RRIRCRPPRLPRPRPRPKNTPRP,-0.339
7,RRIRERPPRLPRPRPRPEKNPRP,-0.126
8,RRIRDRPPRLPRPRPRPKQMPRP,0.113
9,RRIRLRPPRLPRPRPRPSDMPRP,-0.18
10,RRIRMRPPRLPRPRPRPGVCPRP,0.535
11,RRIRQRPPRLPRPRPRPYKNPRP,-1.02
12,RRIRLRPPRLPRPRPRPFLDPRP,-0.228
13,RRIRDRPPRLPRPRPRPWHEPRP,-0.266
14,RRIRGRPPRLPRPRPRPQQEPRP,0.0132
15,RRIRRRPPRLPRPRPRPGHMPRP,0.101
16,RRIRNRPPRLPRPRPRPSDKPRP,-0.363
17,RRIRFRPPRLPRPRPRPKFRPRP,-0.0326
18,RRIRPRPPRLPRPRPRPLEYPRP,-0.56
19,RRIRKRPPRLPRPRPRPFYMPRP,-0.117
20,RRIRVRPPRLPRPRPRPQHLPRP,-0.117
21,RRIRLRPPRLPRPRPRPSDHPRP,-0.293
22,RRIRARPPRLPRPRPRPFAGPRP,0.0859
23,RRIRIRPPRLPRPRPRPHLDPRP,0.178
24,RRIRYRPPRLPRPRPRPRFVPRP,-1.02
25,RRIRERPPRLPRPRPRPILNPRP,2.73
